Experimental data: patent US10253323B2, “Chloroplast transit peptides” (priority 2015, dated 2019)
Entries after “also recorded” stand apart in the source; their conditions may differ.

Legend:
[1] = tested on: tobacco budworm (TBW); assay: Insect bioassay of Cry2Aa Arabidopsis events, tobacco budworm; type: in vivo
Description: (§1) The effectiveness of the TraP11 chimeric chloroplast transit peptides on Cry2Aa protein expression in Arabidopsis thaliana was assessed. Transgenic Arabidopsis plants which contained TraP11 chimeric chloroplast transit peptides fused to the Cry2Aa protein were assayed for insect tolerance to soybean looper (SBL) and tobacco budworm (TBW).
(§2) A small aliquot of T2 seed (approx. 100-200 seeds) for each event were suspended in 40 mls of 0.1% agarose solution and cold stratified at 4° C. for 24 hrs. The stratified seeds were then sown by pipetting 10 ml of seed onto the surface of four flats in a propagation flat. The flats were filled with Sunshine #5 soil Media™ (Sun Gro; Bellevue, Wash.) and lightly covered with fine vermiculite. The trays were saturated in Hoagland's fertilizer prior to sowing and as needed afterward. After sowing, humidity domes were used to cover the trays and they were then placed into a Conviron™ growth chamber set at 24° C. with a 16 hr photo period. Incandescent and fluorescent lights provided a light level of 200 PAR. After 5 days the seeds germinated and the domes were removed. The first herbicide selection of transformants was on day 6 and the second on day 10. Liberty™ herbicide (a.i. glufosinate-ammonium) was applied using a DeVilbiss atomizer hand sprayer at a rate of 200 g ai/ha to remove nulls. Roughly 25% of the plants were nulls as expected. A row of wild type checks were also included in the selection and they had 100% mortality after two herbicide applications. At 14 days the plants were ready for transplanting. […] The flats were presoaked with Hoagland's fertilizer prior to transplant and afterward as needed. The transplants were propagated in a non-air conditioned green house set at 25° C. with 14 hours of supplemental light. Silique development was inhibited by trimming with scissors and thus created more plant tissue for testing. Plants were ready for DNA sampling at 16-18 days and ready for bio-assay at about 23 days. The putative transgenic plants were screened using molecular confirmation assays and identified events were advanced for protein analysis and bioassay results.
(§3) Both sets of T1 Arabidopsis events were tested in insect bioassay experiments. […] There was a correlation between protein expression and leaf protection against both SBL and TBW for Arabidopsis events expressing Cry2Aa without a TraP (r^2=0.49 [SBL], 0.23 [TBW]), and for Arabidopsis events expressing Cry2Aa with TraP11 (r^2=0.75 [SBL], 0.17 [TBW]). Resultantly, an increase in protein expression caused significant protection against leaf damage (Pr<0.05).

[2] = tested on: soybean looper (SBL); assay: Insect bioassay of Cry2Aa Arabidopsis events, soybean looper; type: in vivo
Description: as §1, §2, §3

[3] = tested on: chloroplasts of the tobacco leaf tissues; assay: Tobacco transient assay, confocal microscopy of TraP-YFP/GFP; type: cell-based, Nicotiana tabacum; details: TraP-YFP or TraP-GFP fusion, Agrobacterium-infiltrated tobacco leaf tissue
From the text: The above described chimeric chloroplast transit peptide sequences were initially tested via a transient in planta assay. Polynucleotide sequences which encode the TraP10 (SEQ ID NO:9), TraP11 (SEQ ID NO:10), TraP17 (SEQ ID NO:11), TraP18 (SEQ ID NO:12), TraP19 (SEQ ID NO:13), TraP26 (SEQ ID NO:14), TraP27 (SEQ ID NO:15), and TraP28 (SEQ ID NO:16), chimeric chloroplast transit peptide sequences were synthesized. A linker sequence (SEQ ID NO:17) was incorporated between the TraP sequence and the yfp coding sequence of TraP10 and TraP11. The resulting constructs contained two plant transcription units (PTU). The first PTU was comprised of the Arabidopsis thaliana Ubiquitin 10 promoter (AtUbi10 promoter; Callis, et al., (1990) J. Biol. Chem., 265: 12486-12493), TraP-yellow fluorescent protein fusion gene (TraP-YFP; US Patent App. 2007/0298412) or the TraP-green fluorescent protein fusion gene (TraP-GFP; Sheen et al., (1995) Plant J., 8(5): 777-84), and Agrobacterium tumefaciens ORF 23 3′ untranslated region (AtuORF23 3′UTR; U.S. Pat. No. 5,428,147). The second PTU was comprised of the Cassava Vein Mosaic Virus promoter (CsVMV promoter; Verdaguer et al., (1996) Plant Molecular Biology, 31: 1129-1139), phosphinothricin acetyl transferase (PAT; Wohlleben et al., (1988) Gene, 70: 25-37) or DSM-II (International Patent App. 2008070845), and Agrobacterium tumefaciens ORF 1 3′ untranslated region (AtuORF1 3′UTR; Huang et al., (1990) J. Bacteriol., 172: 1814-1822). Construct pDAB101979 contains the TraP10 chimeric chloroplast transit peptide (FIG. 3). Construct pDAB101980 contains the TraP11 chimeric chloroplast transit peptide (FIG. 4). Construct pDAB107634 contains the TraP17 chimeric chloroplast transit peptide (FIG. 5). Construct pDAB107635 contains the TraP18 chimeric chloroplast transit peptide (FIG. 6). Construct pDAB107636 contains the TraP19 chimeric chloroplast transit peptide (FIG. 7). Construct pDAB109847 contains the TraP26 chimeric chloroplast transit peptide (FIG. 8). Construct pDAB109848 contains the TraP27 chimeric chloroplast transit peptide (FIG. 9). Construct pDAB109849 contains the TraP28 chimeric chloroplast transit peptide (FIG. 10). […] The constructs were confirmed via restriction enzyme digestion and sequencing. Finally, the constructs were transformed into Agrobacterium tumefaciens and stored as glycerol stocks.
From an Agrobacterium glycerol stock, a loop full of frozen culture was inoculated into 2 ml of Yeast-extract Peptone Dextrose (100 μg/ml spectinomycin) in a 14 ml sterile tube. The inoculated media was incubated at 28° C. overnight with shaking at 200 rpm. The following day about 100 μl of the culture was used to inoculate 25 ml of YPD (100 μg/ml spectinomycin) in a 125 ml sterile tri-baffled flask, and incubated overnight at 28° C. overnight with shaking at 200 rpm. The following day the cultures were diluted to an OD600 of 0.5 in sterile ddH2O (pH 8.0). The diluted Agrobacterium strain was mixed with a second Agrobacterium strain containing the P19 helper protein at a ratio of 1:1. The culture were used for tobacco leaf infiltration via the Voinnet method. Voinnet O, Rivas S, Mestre P, and Baulcombe D, (2003) An enhanced transient expression system in plants based on suppression of gene silencing by the p19 protein of tomato bushy stunt virus. The Plant Journal, 33: 949-956. Infiltrated tobacco plants were placed in a Conviron™ set at 16 hr of light at 24° C. for at least three days until being assayed.
Agrobacterium-infiltrated tobacco leaves were severed from the plant, and placed into a petri-dish with water to prevent dehydration. The infiltrated tobacco leaves were observed under blue light excitation with long-pass filter glasses held in place using a Dark Reader Hand Lamp™ (Clare Chemical Research Co.; Dolores, Colo.) to identify undamaged areas of the leaf that were successfully expressing the YFP or GFP reporter proteins. […]

[4] = tested on: infiltrated tobacco cells; assay: Western blot of infiltrated tobacco plants; type: cell-based, Nicotiana tabacum; details: infiltrated tobacco leaf tissue
Description: Samples of the infiltrated tobacco plants were assayed via Western blotting. Leaf punches were collected and subjected to bead-milling. About 100-200 mg of leaf material was mixed with 2 BBs (Daisy; Rogers, Ark.) and […] of PBST for 3 minutes in a Kleco™ bead mill. The samples were then spun down in a centrifuge at 14,000× g at 4° C. The supernatant was removed and either analyzed directly via Western blot or immunoprecipitated. The immunoprecipitations were performed using the Pierce Direct IP Kit™ (Thermo Scientific; Rockford, Ill.) following the manufacturer's protocol. Approximately, 50 μg of anti-YFP or anti-GFP was bound to the resin. The samples were incubated with the resin overnight at 4° C. Next, the samples were washed and eluted the following morning and prepped for analysis by combining equal volumes of 2×8M Urea sample buffer and then boiling the samples for 5 minutes. The boiled samples were run on a 4-12% SDS-Bis Tris gel in MOPS buffer for 40 minutes. The gel was then blotted using the Invitrogen iBlot™ (Life Technologies; Carlsbad, Calif.) following the manufacturer's protocol. The blotted membrane was blocked for 10 minutes using 5% non-fat dry milk in PBS-Tween® solution. The membrane was probed with the primary antibody (monoclonal anti-GFP or anti-YFP in rabbit) used at a 1:1000 dilution in the 5% non-fat dry milk in PBS-Tween® solution for 1 hour. Next, the membrane was rinsed three times for five minutes with PBS-Tween® to remove all unbound primary antibody. The membrane was probed with a secondary monoclonal anti-rabbit in goat antibody (Life Technologies) used at a 1:1000 dilution, for 60 minutes. The membrane was washed as previously described and developed by adding Themo BCIP/NBT™ substrate. The colormetric substrate was allowed to develop for 5-10 minutes and then the blots were rinsed with water before being dried.

B1: Cry2Aa without a TraP: Cry2Aa protein expressed in Arabidopsis from control plasmid without a chloroplast transit peptide sequence upstream of the cry2Aa gene (protein, UniProt P0A377 1-633, looked up)
Pesticidal crystal protein …: MNNVLNSGRTTICDAYNVVAHDPFSFEHKSLDTIQKEWMEWKRTDHSLYVAPVVGTVSSFLLKKVGSLIGKRILSELWGIIFPSGSTNLMQDILRETEQFLNQRLNTDTLARVNAELIGLQANIREFNQQVDNFLNPTQNPVPLSITSSVNTMQQLFLNRLPQFQIQGYQLLLLPLFAQAANMHLSFIRDVILNADEWGISAATLRTYRDYLRNYTRDYSNYCINTYQTAFRGLNTRLHDMLEFRTYMFLNVFEYVSIWSLFKYQSLMVSSGANLYASGSGPQQTQSFTAQNWPFLYSLFQVNSNYILSGISGTRLSITFPNIGGLPGSTTTHSLNSARVNYSGGVSSGLIGATNLNHNFNCSTVLPPLSTPFVRSWLDSGTDREGVATSTNWQTESFQTTLSLRCGAFSARGNSNYFPDYFIRNISGVPLVIRNEDLTRPLHYNQIRNIESPSGTPGGARAYLVSVHNRKNNIYAANENGTMIHLAPEDYTGFTISPIHATQVNNQTRTFISEKFGNQGDSLRFEQSNTTARYTLRGNGNSYNLYLRVSSIGNSTIRVTINGRVYTVSNVNTTTNNDGVNDNGARFSDINIGNIVASDNTNVTLDINVTLNSGTPFDLMNIMFVPTNLPPLY
protection of Arabidopsis plants from TBW damage [1]: protected from TBW damage | Cry2Aa protein concentration resulting in less than 30% leaf damage ([1]; Arabidopsis events): ~1.5 ng/cm^2 | Cry2Aa protein level at the 20% leaf damage cut-off point ([1]; Arabidopsis events): 2.0-2.5 ng/cm^2 | protection of Arabidopsis plants from SBL damage [2]: protected from SBL damage | minimum Cry2Aa protein expression for lower than 20% leaf damage ([2]; Arabidopsis events): 2.0-2.5 ng/cm^2 | minimum Cry2Aa protein expression for lower than 30% leaf damage ([2]; Arabidopsis events): about 1.5 ng/cm^2

B2: TraP11: chimeric chloroplast transit peptide, SEQ ID NO:2; N-terminus Glycine max, C-terminus Brassica napus; tested fused to YFP (pDAB101980) (protein)
chain: MAQVSRVHNLAQSTQIFGHSSNSNKLKSVNSVSLKTHQPRASSWGLKKSGTMLNGSVIRPVKVTASVS
modifications: TraP11
translocation of YFP or GFP fluorescent protein into chloroplasts [3]: accumulated within the chloroplasts; also recorded: successfully targeted YFP to tobacco chloroplasts | translocation of YFP or GFP fluorescent protein into chloroplasts ([3]; listed as TraP11-YFP): translocated into the chloroplasts | protection of Arabidopsis plants from TBW damage [1]: provided insect tolerance | protection of Arabidopsis plants from SBL damage [2]: provided insect tolerance | TraP processed and cleaved from the YFP or GFP protein [4]: processed and cleaved from the YFP or GFP protein
